Laboratory results from patent US8501487B2, “Composition for use as a peptide retention standard and a method of predicting peptide hydrophobicity in liquid chromatography” (University of Manitoba, priority 2008, dated 2013).
Where two headings read alike, the source gives them in different places.

Experiments:
[1] = Isocratic RP HPLC: log k vs φ plots, UHI (acetonitrile concentration at k=10) and S slope; format: physicochemical; conditions: for UHI 100 Å C18 − TFA / UHI 100 Å C18 − FA / UHI 300 Å C18 − TFA / UHI 100 Å C18 − pH 10: acetonitrile concentration (ACN %) at k=10, isocratic, in %; for UHI 100 Å C18 − TFA: 0.1% TFA; for UHI 100 Å C18 − TFA / UHI 100 Å C18 − FA / UHI 300 Å C18 − TFA: ~25° C.; for UHI 100 Å C18 − FA: 0.1% formic acid; for UHI 300 Å C18 − TFA: Vydac 218 TP C18, 0.1% TFA; for UHI 100 Å C18 − pH 10: XTerra C18, 20 mM ammonium formate pH 10, ~25° C.; for S value (slope in LSS equation): isocratic, TFA, pH 2
From the text: Accordingly, in a further embodiment of the present disclosure there is included, a method of predicting hydrophobicity of a peptide: • (a) measuring retention time for each peptide of a standard peptide mixture at three or more different concentrations of acetonitrile under isocratic conditions; • (b) calculating a retention coefficient k for each peptide in the mixture and at each concentration of acetonitrile using equation (2) k=(tR−tO)/TOc (2) • wherein • tR is the retention time, • tO is system dead time, and • TOc is column dead time; • (c) for each peptide in the mixture, plotting log k vs φ, wherein φ is the acetonitrile volume fraction; • (d) for each peptide in the mixture, determining the value of φ when log k=1 and converting this to acetonitrile concentration to provide a universal hydrophobicity index (UHI); • (e) plotting retention times of each peptide vs its UHI; • (f) determining the retention time of an unknown peptide under the isocratic liquid chromatographic conditions; and • (g) determining from the plot in (e) the value of UHI that corresponds to the retention time of the unknown peptide, • wherein the UHI correlates to the hydrophobicity of the unknown peptide.
Two chromatographic setups: micro-flow 3 μl/min and “semi-micro” at 150 μl/min were employed utilizing a micro-Agilent 1100 Series system (Agilent Technologies, Wilmington, Del.) with two column sizes: 300 μm×150 mm (micro) and 1 mm×100 mm (semi-micro). The three stationary phases studied included: Vydac 218 TP C18, 300 Å pore size, 5 μm (Grace Vydac, Hesperia, Calif.); Luna C18(2) 100 Å, 5 μm (Phenomenex, Torrance, Calif.) and XTerra C18, 120 Å, 5 μm (Waters, Milford, Mass.). Three different ion-pairing systems with linear water-acetonitrile gradients were employed: 0.1% trifluoroacetic acid (TFA) in both eluents A and B (Vydac and Luna), 0.1% formic acid (FA, Luna) and 20 mM ammonium formate pH 10 (XTerra). This provided us with four different mobile/stationary phase combinations corresponding to four versions of SSRCalc model: 100 and 300 Å for TFA, 100 Å with FA and 100 Å at pH 10. Gradient separations of the 6-peptide mixture in “semi-micro” flow mode were performed in all four systems using 0.5, 1, 2 and 4% acetonitrile per minute gradient slopes.
Stock solutions of the 6 custom peptides (˜1 mg/ml) were prepared by dissolving in 1 ml of 0.1% TFA in water (20% acetonitrile for peptides #5 and 6). Ten microliters sample injection was applied for “semi-micro” conditions in both isocratic and gradient modes. Individual peptides, their mixture and the S1-S5 retention standard were diluted to provide ˜0.5-1 μg injection of each component. 214 nm UV detection was used. All chromatographic experiments were conducted at room temperature, ˜25° C. Dead volume of the column and connecting tubings was measured using injection of non-retained compound (water) and measuring elution time of negative peak. Retention coefficients for isocratic elution were calculated using the formula: k=(tR−t0)/t0c; where tR is retention time, t0 and t0c—system (column and tubings) and column dead time.
Since accurate measurement of ACN % hydrophobicity using gradient elution is problematic it is proposed to use isocratic conditions for this purpose. […] This confirms once again that peptides elute from reversed-phase sorbents within a very narrow range of acetonitrile concentration. It is clear as well that the slope of these dependencies decrease systematically as peptide hydrophobicity increase. This is the reason for narrowing ACN percentage scale for shallow gradients in FIG. 2.
It is proposed to use acetonitrile concentration at which the capacity factor of any given peptide is equal to 10 (at room temperature ˜25° C.) as a measure of peptide hydrophobicity. This value is referred to herein as peptide Universal Hydrophobicity Index (UHI), since it depends only on type of the sorbent and ion-pairing modifier. […]

[2] = rhGH tryptic digest, literature data; cited from earlier work
[3] = Gradient RP HPLC: acetonitrile concentration at elution and ACN % range covered; format: physicochemical; conditions: gradient conditions (FIG. 2c), Luna C18(2), 0.1% TFA, gradient delay time 4.3 min taken into account
From the text: A one percent per minute acetonitrile gradient starting from 0% was used for all separations. The retention time difference between first and last peaks on chromatograms gives direct indication of ACN % scale covered. […] Such wide coverage is very important, especially for nano- and micro-flow proteomics LC applications. While normal-flow gradient system technology is well established, in nano scale LC gradient reproducibility is harder to achieve. The correct retention time distribution of the standard peptides of the present disclosure confirms the proper development of the gradient, especially at the beginning of the chromatogram. Also note the uniform distribution of the six peaks of the peptide composition of the present disclosure throughout the chromatogram; such uniformity is rarely observed in standard peptide mixtures derived from protein digests. […]
Stock solutions of the 6 custom peptides (˜1 mg/ml) were prepared by dissolving in 1 ml of 0.1% TFA in water (20% acetonitrile for peptides #5 and 6). […] Dead volume of the column and connecting tubings was measured using injection of non-retained compound (water) and measuring elution time of negative peak. Retention coefficients for isocratic elution were calculated using the formula: k=(tR−t0)/t0c; where tR is retention time, t0 and t0c—system (column and tubings) and column dead time. […]

Substance | UHI 100 Å C18 − TFA ([1]; Luna C18(2)) | UHI 100 Å C18 − FA ([1]; Luna C18(2)) | UHI 300 Å C18 − TFA [1] | UHI 100 Å C18 − pH 10 [1] | S value (slope in LSS equation) [2] | S value (slope in LSS equation) ([1]; Luna C18(2)) | concentration of acetonitrile required for elution [3] | acetonitrile concentration at k=10 ([1]; isocratic conditions, Luna C18(2), TFA (FIG. 3))
LGGGGGGDFR [custom synthesized standard peptide] | 10.74 | 4.58 | 8.40 | 6.80 | – | – | – | –
LLLLLDFR [custom synthesized standard peptide] | 29.58 | 21.59 | 28.60 | 28.94 | – | – | – | –
QTYSK [Peptide T14, tryptic digest product of recombinant human growth hormone] | – | – | – | – | 24.3 | – | – | –
LLLGGDFR [custom synthesized standard peptide] | 20.72 | 13.08 | 18.90 | 18.29 | – | – | – | –
ALILTLVS [peptide purchased from Bachem, singly charged at pH 2, reference compound] | – | – | – | – | – | 13.47 | – | –
LGGGGGGDGSR [custom synthesized standard peptide] | 3.97 | <0 | 1.89 | 1.14 | – | – | – | –
LLGGGGDFR [custom synthesized standard peptide] | 15.53 | 8.55 | 13.35 | 13.65 | – | – | – | –
ISLLLIQSWLEPVQFLR [Peptide T9, tryptic digest product of recombinant human growth hormone] | – | – | – | – | 18.5 | – | – | –
LLLLDFR [custom synthesized standard peptide] | 26.07 | 18.26 | 24.78 | 24.18 | – | 14.69 | 29.6% | 26.1%
